# Reference: patent publication US20080219970
# System: Ir-CPI (Ixodes ricinus Contact Phase Inhibitor), recombinant, without its peptide signal
substance,measurement,value
kallikrein,"activation of factor XII into factor XIIa by kallikrein, reconstituted system with purified factors, chromogenic substrate",Ir-CPI did not inhibit the activation of factor XII into factor XIIa by kallikrein
same,"amidolytic activity (chromogenic substrate S-2302), protease preincubated with Ir-CPI at 1:5 molar ratio",The results obtained did not show any effect of Ir-CPI protein on the amidolytic activity of these factors
factor XIa,"activation of factor XII into factor XIIa by factor XIa, reconstituted system with purified factors, chromogenic substrate",Ir-CPI inhibits ... the activation of factor XII into factor XIIa by factor XIa
same,"amidolytic activity (chromogenic substrate S-2366), protease preincubated with Ir-CPI at 1:5 molar ratio",The results obtained did not show any effect of Ir-CPI protein on the amidolytic activity of these factors
